Publication PMC6704105

Target: PRMT5 (UniProt O14744)
Experiment: co-IP with anti-PRMT5, JDP2 blot
Conditions: reference: wild-type JDP2; sites T116

JDP2 (from UniProt Q8WYK2) JDP2 T116A
binding against the reference: lost
